Experimental data as given in paper PMC6484116, “The NifZ accessory protein has an equivalent function in maturation of both nitrogenase MoFe protein P-clusters” (The Journal of Biological Chemistry, 2019).
Where “and” joins values, the source holds several entries; their conditions need not be identical. Equal entries are not always repeated.

Columns and labels:
[1] = target: T1, MoFe protein^StrΔZ (Strep-tagged nitrogenase MoFe protein produced in a nifZ-deletion strain) (Azotobacter vinelandii, UniProt P07328 1-492; P07329 1-523); assay: affinity purification with mass spectrometry; MoFe protein^StrΔZ isolated on Strep-Tactin (STAC) from cell extract, then Q-Sepharose anion exchange (200-500 mM NaCl gradient); fractions on SDS-PAGE, Coomassie, densitometry; bands identified by MALDI; also after incubating the extract 0-240 min with 36 mM Na2S2O4 at 30 °C (NifW slowly dissociates); conditions: partners not purified
T1 construct: nitrogenase MoFe protein α-subunit (NifD), Azotobacter vinelandii; Strep-encoding tag incorporated into the N-terminal coding region; nitrogenase MoFe protein β-subunit (NifK), Azotobacter vinelandii; A mixed population: αβ-units hold either an immature P-cluster without FeMo-cofactor or a mature P-cluster with FeMo-cofactor; also called MoFe^StrΔZ; α2β2 heterotetramer; source: A. vinelandii …
T1 sequence (looked up) 1: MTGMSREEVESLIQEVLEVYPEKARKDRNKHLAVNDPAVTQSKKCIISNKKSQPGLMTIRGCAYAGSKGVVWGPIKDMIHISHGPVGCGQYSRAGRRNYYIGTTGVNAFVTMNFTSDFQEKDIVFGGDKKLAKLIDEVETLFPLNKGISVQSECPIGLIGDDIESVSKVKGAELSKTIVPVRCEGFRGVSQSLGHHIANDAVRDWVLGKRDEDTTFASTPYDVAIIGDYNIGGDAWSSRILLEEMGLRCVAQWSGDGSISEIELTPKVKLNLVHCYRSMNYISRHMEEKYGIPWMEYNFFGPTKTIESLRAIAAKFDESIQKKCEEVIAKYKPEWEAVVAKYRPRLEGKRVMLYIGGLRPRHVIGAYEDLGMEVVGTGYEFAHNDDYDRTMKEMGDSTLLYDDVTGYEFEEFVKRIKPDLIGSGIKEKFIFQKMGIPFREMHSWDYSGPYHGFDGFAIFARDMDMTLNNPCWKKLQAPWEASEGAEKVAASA
T1 sequence (looked up) 2: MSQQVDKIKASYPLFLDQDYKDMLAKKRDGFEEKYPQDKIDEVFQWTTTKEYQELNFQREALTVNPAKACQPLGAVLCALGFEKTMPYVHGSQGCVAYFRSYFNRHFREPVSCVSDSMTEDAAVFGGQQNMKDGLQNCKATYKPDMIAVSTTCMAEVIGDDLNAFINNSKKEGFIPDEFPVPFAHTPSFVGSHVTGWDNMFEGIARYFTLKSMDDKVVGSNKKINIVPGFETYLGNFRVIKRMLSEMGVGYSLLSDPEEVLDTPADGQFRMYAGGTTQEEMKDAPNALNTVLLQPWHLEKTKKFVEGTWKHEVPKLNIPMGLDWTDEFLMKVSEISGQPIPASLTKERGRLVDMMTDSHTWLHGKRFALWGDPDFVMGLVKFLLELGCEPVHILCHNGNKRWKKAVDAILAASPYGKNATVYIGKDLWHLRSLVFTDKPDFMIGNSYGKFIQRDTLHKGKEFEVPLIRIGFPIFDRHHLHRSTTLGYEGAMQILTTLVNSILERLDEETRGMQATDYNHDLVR

[2] = target: T2, MoFe protein^HisΔZ (His-tagged nitrogenase MoFe protein produced in a nifZ-deletion strain) (Azotobacter vinelandii, UniProt P07328 1-492; P07329 1-523); assay: affinity purification with mass spectrometry; MoFe protein^HisΔZ isolated by IMAC from extract of cells derepressed 4 h, then Q-Sepharose anion exchange (200-500 mM NaCl gradient); fractions on SDS-PAGE, Coomassie, densitometry; bands identified by MALDI; conditions: partners not purified
T2 construct: nitrogenase MoFe protein α-subunit (NifD), Azotobacter vinelandii; polyhistidine-encoding tag incorporated into the N-terminal coding region; nitrogenase MoFe protein β-subunit (NifK), Azotobacter vinelandii; A mixed population: αβ-units hold either an immature P-cluster without FeMo-cofactor or a mature P-cluster with FeMo-cofactor; also called MoFe^His protein; α2β2 heterotetramer; source: A. …
T2 sequence (looked up) 1: T1 sequence (looked up) 1
T2 sequence (looked up) 2: T1 sequence (looked up) 2

B1: NifW (accessory protein, endogenous) (natural protein, UniProt P14888 1-115, looked up)
chain: MTVQPFSPDSDLTLDEAMDELVSAEDFLEFFGVPFDQDVVHVNRLHIMQRYHDYLSKAGDLDEHDDQARYAVFQKLLARAYLDFVESDALTEKVFKVFRMHEPQKTFVSIDQLLS
notes: NifW, Azotobacter vinelandii; also called NifW assembly factor; source: endogenous, A. vinelandii DJ1182 or DJ2111 cell extract; co-purified with MoFe protein
stoichiometry N [1]: ~1 NifW per α2β2 heterotetramer and ~2 NifW per α2β2 heterotetramer
stoichiometry N [2]: ~1 NifW per α2β2 heterotetramer and 2 NifW per α2β2 heterotetramer
